The record followed here is article PMC8807474, “Single-Molecule Fluorescence Imaging Reveals GABAB Receptor Aggregation State Changes” (Frontiers in Chemistry, 2021).

In data set [1] the test system is O75899. The data set can be described thus: single-molecule photobleaching step counting (TIRFM); GBR1-EGFP co-expressed with unlabeled GBR2 in HEK293 cells; EGFP spots on the cell membrane; one bleaching step = one heterodimer, two steps = tetramer of two heterodimers (heterodimers to tetramer); resting state; also after 1 mM GABA …. As to conditions: other: single-molecule photobleaching step counting (TIRFM).

Data set [2] concerns the molecule itself. Put plainly: single-molecule photobleaching step counting (TIRFM); GBR2-EGFP expressed alone at low expression level in HEK293 cells; EGFP spots on the cell membrane; monomer to homodimer.

“GABAB receptor heterodimer GBR1-EGFP/GBR2”: in data set [1], the “percent of spots with one-step bleaching (single heterodimer)” value is recorded as “about 50% population” and the “percent of spots with two-step bleaching (tetramer of two heterodimers)” value is given as “about 30% receptors”.

B1: GBR2-EGFP (receptor, UniProt O75899 42-941, looked up)
chain: WARGAPRPPPSSPPLSIMGLMPLTKEVAKGSIGRGVLPAVELAIEQIRNESLLRPYFLDLRLYDTECDNAKGLKAFYDAIKYGPNHLMVFGGVCPSVTSIIAESLQGWNLVQLSFAATTPVLADKKKYPYFFRTVPSDNAVNPAILKLLKHYQWKRVGTLTQDVQRFSEVRNDLTGVLYGEDIEISDTESFSNDPCTSVKKLKGNDVRIILGQFDQNMAAKVFCCAYEENMYGSKYQWIIPGWYEPSWWEQVHTEANSSRCLRKNLLAAMEGYIGVDFEPLSSKQIKTISGKTPQQYEREYNNKRSGVGPSKFHGYAYDGIWVIAKTLQRAMETLHASSRHQRIQDFNYTDHTLGRIILNAMNETNFFGVTGQVVFRNGERMGTIKFTQFQDSREVKVGEYNAVADTLEIINDTIRFQGSEPPKDKTIILEQLRKISLPLYSILSALTILGMIMASAFLFFNIKNRNQKLIKMSSPYMNNLIILGGMLSYASIFLFGLDGSFVSEKTFETLCTVRTWILTVGYTTAFGAMFAKTWRVHAIFKNVKMKKKIIKDQKLLVIVGGMLLIDLCILICWQAVDPLRRTVEKYSMEPDPAGRDISIRPLLEHCENTHMTIWLGIVYAYKGLLMLFGCFLAWETRNVSIPALNDSKYIGMSVYNVGIMCIIGAAVSFLTRDQPNVQFCIVALVIIFCSTITLCLVFVPKLITLRTNPDAATQNRRFQFTQNQKKEDSKTSTSVTSVNQASTSRLEGLQSENHRLRMKITELDKDLEEVTMQLQDTPEKTTYIKQNHYQELNDILNLGNFTESTDGGKAILKNHLDQNPQLQWNTTEPSRTCKDPIEDINSPEHIQRRLSLQLPILHHAYLPSIGGVDASCVSPCVSPTASPRHRHVPPSFRVMVSGL
notes: GABAB receptor subunit 2 (GBR2, GABAB2); source: HEK293, transfected, expressed alone at low expression level, on cells
By stoichiometry N is commonly meant the number of molecules, sites or subunits per partner or assembly. As for B1, the “stoichiometry N” value in data set [2] was found to be 2.
